Blank lines part the entries; values can stand above or below the substance they belong to.
Experiments:
[1] = biological target: DesV (SLG_28320 gene product), His-tag fused (Sphingobium sp. SYK-6); test: SEC; Superdex200 10/300GL, 50 mM KH2PO4-K2HPO4 buffer (pH 7.0) with 150 mM NaCl, 0.5 ml/min; native mass estimated and compared with the monomer size
[2] = test system: T1, COc1cc(C=O)cc(OC)c1O; test: HPLC, Hanes-Woolf plot; assay type: biochemical, Sphingobium sp. SYK-6; settings: 500 μM NAD+, pH 7.0 phosphate buffer, 30 °C
T1 construct: calculated Mr 55,173; dimer 120 kDa
Excerpt: (§1) HPLC, Hanes-Woolf plot on DesV (SLG_28320)

[3] = test system: T2, COc1cc(C=O)ccc1O; test: HPLC, Hanes-Woolf plot; assay type: biochemical, Sphingobium sp. SYK-6; settings: 500 μM NAD+, pH 7.0 phosphate buffer, 30 °C
T2 construct: calculated Mr 55,173; dimer 120 kDa
Excerpt: as §1

[4] = biological target: LigV (vanillin dehydrogenase), His-tag fused (Sphingobium sp. SYK-6); test: SEC; Superdex200 10/300GL, 50 mM KH2PO4-K2HPO4 buffer (pH 7.0) with 150 mM NaCl, 0.5 ml/min; native mass estimated and compared with the monomer size

DesV (SLG_28320) (Sphingobium sp. SYK-6), sequence (chain, as listed by the source): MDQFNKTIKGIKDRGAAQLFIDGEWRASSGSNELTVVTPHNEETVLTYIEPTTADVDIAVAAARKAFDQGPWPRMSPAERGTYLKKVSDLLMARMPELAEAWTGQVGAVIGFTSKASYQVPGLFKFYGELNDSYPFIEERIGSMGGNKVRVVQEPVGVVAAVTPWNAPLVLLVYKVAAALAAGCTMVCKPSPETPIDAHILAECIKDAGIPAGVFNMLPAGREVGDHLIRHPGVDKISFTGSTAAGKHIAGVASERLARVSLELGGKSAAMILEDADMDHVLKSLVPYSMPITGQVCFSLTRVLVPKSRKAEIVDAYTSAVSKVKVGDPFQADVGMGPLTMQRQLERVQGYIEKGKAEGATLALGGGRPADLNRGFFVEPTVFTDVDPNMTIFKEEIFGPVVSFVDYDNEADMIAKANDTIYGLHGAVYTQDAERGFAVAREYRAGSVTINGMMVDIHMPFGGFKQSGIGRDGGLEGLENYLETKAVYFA

stoichiometry N [1]: 2
Substance: DesV (SLG_28320 gene product), His-tag fused (enzyme)

Substance: DesV (SLG_28320) (Sphingobium sp. SYK-6)
Km [2]: 0.48 ± 0.03 µM
Vmax [2]: 1.08 µmol/min/mg
kcat [2]: 0.99 ± 0.01 s⁻¹
kcat/Km [2]: 2.1e+06 ± 93000 M⁻¹ s⁻¹
Km [3]: 0.47 ± 0.04 µM
Vmax [3]: 0.85 µmol/min/mg
kcat [3]: 0.79 ± 0.01 s⁻¹
kcat/Km [3]: 1.7e+06 ± 140000 M⁻¹ s⁻¹

stoichiometry N [4]: 4
Substance: LigV (vanillin dehydrogenase), His-tag fused (enzyme)

From publication PMC5353671, “A bacterial aromatic aldehyde dehydrogenase critical for the efficient catabolism of syringaldehyde” (Scientific Reports, 2017)
